Ten molecules from paper PMC3983244, “Location of Dual Sites in E. coli FtsZ Important for Degradation by ClpXP; One at the C-Terminus and One in the Disordered Linker” (PLoS ONE, 2014) can be followed below.

The target of data set [1] is FtsZ(F377A) (E. coli) (UniProt P0A9A6).
In data set [2] the target is FtsZ(P375G) (E. coli) (UniProt P0A9A6).
Data set [3] concerns the target FtsZ(Δ380-383) (E. coli) (UniProt P0A9A6).
For data set [4], the target named is FtsZ(Δ375-383) (E. coli) (UniProt P0A9A6).
Data set [5] addresses E. coli FtsZ (wild type) (E. coli) (UniProt P0A9A6).
The target in data set [6] is FtsZ(K380A) (E. coli) (UniProt P0A9A6).
Data set [7] concerns the target FtsZ(R379E) (E. coli) (UniProt P0A9A6).
For data set [8], the target named is E. coli FtsZ (wild type) (E. coli) (UniProt P0A9A6). This is another data set of the same source.
Data set [9] concerns the molecule itself. The data set is described as follows: 90° light scattering; 8 µM FtsZ wild type or mutant in assembly buffer, polymerisation after addition of 1 mM GTP; self-association into polymers.
In data set [10] the target is T1, ClpX(E185Q) (E. coli, UniProt P0A6H1 1-424, E185Q).
T1 construct: ClpX, Escherichia coli, ATP hydrolysis defective mutant E185Q; Concentrations are reported for ClpX hexamers; also called ATP hydrolysis defective mutant of ClpX
The data set is described as follows: co-sedimentation; 250 pmol FtsZ wild type or mutant polymerised with 2 mM GTP in assembly buffer (50 mM MES pH 6.5, 50 mM KCl, 10 mM MgCl2) with acetate kinase and acetyl phosphate; 1.5, 5.0 or 12.5 pmol ClpX(E185Q) and 4 mM ATP added, 25 µl, 10 min; 129,000×g 30 min; SDS-PAGE, Coomassie, densitometry; background without GTP subtracted. Particulars: both partners purified.

Data set [11] deals with the molecule itself. In words: negative-stain electron microscopy; FtsZ mutant proteins (5 µM) incubated with GTP, negative staining with uranyl acetate; filaments.

On to “E. coli ClpX (wild type) (from UniProt P0A6H1 1-424) (enzyme)”, for which the reduction of the rate of degradation by ClpXP against wild type FtsZ, in the presence of GTP (no similar reduction without GTP) in [1] and in [2] was 50% each time. The reduction of the rate of degradation by ClpXP against wild type FtsZ, in the absence of GTP in [3] and in [4] was 65% in each case. Besides, the reduction of the rate of degradation by ClpXP against wild type FtsZ, in the presence of GTP in data set [3] and in data set [4] was 75% each time. The molecule also had a rate of degradation of fluorescent FtsZ (10 µM) by ClpXP (1 µM) in the absence of GTP, ultrafiltration assay in data set [5] of 0.11 min⁻¹. Besides, in [5], the rate of degradation of fluorescent FtsZ (10 µM) by ClpXP (1 µM) in the presence of GTP, ultrafiltration assay came out at 0.2 min⁻¹. Moreover, the reduction of the rate of degradation by ClpXP against wild type FtsZ, in both the presence and absence of GTP was 55% in [6] and 75% in data set [7].

B1: MinC (natural protein)
chain: MSNTPIELKGSSFTLSVVHLHEAEPKVIHQALEDKIAQAPAFLKHAPVVLNVSALEDPVNWSAMHKAVSATGLRVIGVSGCKDAQLKAEIEKMGLPILTEGKEKAPRPAPTPQAPAQNTTPVTKTRLIDTPVRSGQRIYAPQCDLIVTSHVSAGAELIADGNIHVYGMMRGRALAGASGDRETQIFCTNLMAELVSIAGEYWLSDQIPAEFYGKAARLQLVENALTVQPLN
As for B1, the inhibition of degradation of fluorescent FtsZ (5 µM, with GTP) by ClpXP (0.5 µM) at 2, 5, 10 and 20 µM MinC; the pair that is blocked: FtsZ with ClpX (ClpXP) in data set [8] was found to be 80%.

B2: E. coli FtsZ (wild type) (natural protein, UniProt P0A9A6 1-383, looked up)
chain: MFEPMELTNDAVIKVIGVGGGGGNAVEHMVRERIEGVEFFAVNTDAQALRKTAVGQTIQIGSGITKGLGAGANPEVGRNAADEDRDALRAALEGADMVFIAAGMGGGTGTGAAPVVAEVAKDLGILTVAVVTKPFNFEGKKRMAFAEQGITELSKHVDSLITIPNDKLLKVLGRGISLLDAFGAANDVLKGAVQGIAELITRPGLMNVDFADVRTVMSEMGYAMMGSGVASGEDRAEEAAEMAISSPLLEDIDLSGARGVLVNITAGFDLRLDEFETVGNTIRAFASDNATVVIGTSLDPDMNDELRVTVVATGIGMDKRPEITLVTNKQVQQPVMDRYQQHGMAPLTQEQKPVAKVVNDNAPQTAKEPDYLDIPAFLRKQAD
notes: FtsZ, Escherichia coli, wild type; Unlabelled in the co-sedimentation assay; labelled with Alexa fluor succinimidyl ester (0.5-5.0 mol/mol) in the degradation reactions; Assembles into polymers with GTP; also called wild type FtsZ
Turning to B2, the binding result in data set [9] and in data set [10] was “binds” each time.

B3: FtsZ(R379E) (natural protein, E. coli, UniProt P0A9A6 1-383, looked up)
chain: MFEPMELTNDAVIKVIGVGGGGGNAVEHMVRERIEGVEFFAVNTDAQALRKTAVGQTIQIGSGITKGLGAGANPEVGRNAADEDRDALRAALEGADMVFIAAGMGGGTGTGAAPVVAEVAKDLGILTVAVVTKPFNFEGKKRMAFAEQGITELSKHVDSLITIPNDKLLKVLGRGISLLDAFGAANDVLKGAVQGIAELITRPGLMNVDFADVRTVMSEMGYAMMGSGVASGEDRAEEAAEMAISSPLLEDIDLSGARGVLVNITAGFDLRLDEFETVGNTIRAFASDNATVVIGTSLDPDMNDELRVTVVATGIGMDKRPEITLVTNKQVQQPVMDRYQQHGMAPLTQEQKPVAKVVNDNAPQTAKEPDYLDIPAFLEKQAD
notes: FtsZ, Escherichia coli, substitution R379E; source: E. coli BL21 (λDE3), purified like wild type FtsZ
With B3, the binding result in [11] was “binds”.

B4: FtsZ(356AAA) (natural protein, E. coli, UniProt P0A9A6 1-383, looked up)
chain: MFEPMELTNDAVIKVIGVGGGGGNAVEHMVRERIEGVEFFAVNTDAQALRKTAVGQTIQIGSGITKGLGAGANPEVGRNAADEDRDALRAALEGADMVFIAAGMGGGTGTGAAPVVAEVAKDLGILTVAVVTKPFNFEGKKRMAFAEQGITELSKHVDSLITIPNDKLLKVLGRGISLLDAFGAANDVLKGAVQGIAELITRPGLMNVDFADVRTVMSEMGYAMMGSGVASGEDRAEEAAEMAISSPLLEDIDLSGARGVLVNITAGFDLRLDEFETVGNTIRAFASDNATVVIGTSLDPDMNDELRVTVVATGIGMDKRPEITLVTNKQVQQPVMDRYQQHGMAPLTQEQKPVAAAANDNAPQTAKEPDYLDIPAFLRKQAD
notes: source: E. coli BL21 (λDE3), purified like wild type FtsZ
Take B4: the binding result in data set [9] and in [10] was “binds” throughout.

B5: FtsZ(K380A) (natural protein, E. coli, UniProt P0A9A6 1-383, looked up)
chain: MFEPMELTNDAVIKVIGVGGGGGNAVEHMVRERIEGVEFFAVNTDAQALRKTAVGQTIQIGSGITKGLGAGANPEVGRNAADEDRDALRAALEGADMVFIAAGMGGGTGTGAAPVVAEVAKDLGILTVAVVTKPFNFEGKKRMAFAEQGITELSKHVDSLITIPNDKLLKVLGRGISLLDAFGAANDVLKGAVQGIAELITRPGLMNVDFADVRTVMSEMGYAMMGSGVASGEDRAEEAAEMAISSPLLEDIDLSGARGVLVNITAGFDLRLDEFETVGNTIRAFASDNATVVIGTSLDPDMNDELRVTVVATGIGMDKRPEITLVTNKQVQQPVMDRYQQHGMAPLTQEQKPVAKVVNDNAPQTAKEPDYLDIPAFLRAQAD
notes: FtsZ, Escherichia coli, substitution K380A; source: E. coli BL21 (λDE3), purified like wild type FtsZ
Consider B5, for which the binding result in data set [9] is recorded as “binds”.

B6: FtsZ(352AAA) (natural protein, E. coli, UniProt P0A9A6 1-383, looked up)
chain: MFEPMELTNDAVIKVIGVGGGGGNAVEHMVRERIEGVEFFAVNTDAQALRKTAVGQTIQIGSGITKGLGAGANPEVGRNAADEDRDALRAALEGADMVFIAAGMGGGTGTGAAPVVAEVAKDLGILTVAVVTKPFNFEGKKRMAFAEQGITELSKHVDSLITIPNDKLLKVLGRGISLLDAFGAANDVLKGAVQGIAELITRPGLMNVDFADVRTVMSEMGYAMMGSGVASGEDRAEEAAEMAISSPLLEDIDLSGARGVLVNITAGFDLRLDEFETVGNTIRAFASDNATVVIGTSLDPDMNDELRVTVVATGIGMDKRPEITLVTNKQVQQPVMDRYQQHGMAPLTQEQAAAAKVVNDNAPQTAKEPDYLDIPAFLRKQAD
notes: as for B4
Consider B6, for which the binding result in data set [11] and in [10] was “binds” in each case.

B7: FtsZ(352AAA, Δ375-383) (domain or fragment, E. coli, UniProt P0A9A6 1-374, looked up)
chain: MFEPMELTNDAVIKVIGVGGGGGNAVEHMVRERIEGVEFFAVNTDAQALRKTAVGQTIQIGSGITKGLGAGANPEVGRNAADEDRDALRAALEGADMVFIAAGMGGGTGTGAAPVVAEVAKDLGILTVAVVTKPFNFEGKKRMAFAEQGITELSKHVDSLITIPNDKLLKVLGRGISLLDAFGAANDVLKGAVQGIAELITRPGLMNVDFADVRTVMSEMGYAMMGSGVASGEDRAEEAAEMAISSPLLEDIDLSGARGVLVNITAGFDLRLDEFETVGNTIRAFASDNATVVIGTSLDPDMNDELRVTVVATGIGMDKRPEITLVTNKQVQQPVMDRYQQHGMAPLTQEQAAAAKVVNDNAPQTAKEPDYLDI
notes: also called double mutant; source: E. coli BL21 (λDE3), purified like wild type FtsZ
As to B7, the binding result in data set [9] and in data set [10] was “binds” in each case.

B8: FtsZ(Δ375-383) (domain or fragment, E. coli, UniProt P0A9A6 1-374, looked up)
chain: MFEPMELTNDAVIKVIGVGGGGGNAVEHMVRERIEGVEFFAVNTDAQALRKTAVGQTIQIGSGITKGLGAGANPEVGRNAADEDRDALRAALEGADMVFIAAGMGGGTGTGAAPVVAEVAKDLGILTVAVVTKPFNFEGKKRMAFAEQGITELSKHVDSLITIPNDKLLKVLGRGISLLDAFGAANDVLKGAVQGIAELITRPGLMNVDFADVRTVMSEMGYAMMGSGVASGEDRAEEAAEMAISSPLLEDIDLSGARGVLVNITAGFDLRLDEFETVGNTIRAFASDNATVVIGTSLDPDMNDELRVTVVATGIGMDKRPEITLVTNKQVQQPVMDRYQQHGMAPLTQEQKPVAKVVNDNAPQTAKEPDYLDI
notes: Alexa-labelled in the degradation reactions, unlabelled in co-sedimentation; also called deletion mutant lacking the C-terminal nine amino acids; source: E. coli BL21 (λDE3), purified like wild type FtsZ
As to B8, the binding result in data set [10] was “binds”.

B9: FtsZ(Δ380-383) (domain or fragment, E. coli, UniProt P0A9A6 1-379, looked up)
chain: MFEPMELTNDAVIKVIGVGGGGGNAVEHMVRERIEGVEFFAVNTDAQALRKTAVGQTIQIGSGITKGLGAGANPEVGRNAADEDRDALRAALEGADMVFIAAGMGGGTGTGAAPVVAEVAKDLGILTVAVVTKPFNFEGKKRMAFAEQGITELSKHVDSLITIPNDKLLKVLGRGISLLDAFGAANDVLKGAVQGIAELITRPGLMNVDFADVRTVMSEMGYAMMGSGVASGEDRAEEAAEMAISSPLLEDIDLSGARGVLVNITAGFDLRLDEFETVGNTIRAFASDNATVVIGTSLDPDMNDELRVTVVATGIGMDKRPEITLVTNKQVQQPVMDRYQQHGMAPLTQEQKPVAKVVNDNAPQTAKEPDYLDIPAFLR
notes: also called deletion mutant that lacks the C-terminal four amino acid variable region; source: E. coli BL21 (λDE3), purified like wild type FtsZ
Consider B9, for which the binding result in [9] is “binds”.
